The values below come from publication PMC11696221 (Nature Communications, 2025).

Substitutions are numbered along the chain they refer to.

The target in test [1] is T1, pS KaiC (KaiC-EA; S431E, T432A) (cyanobacteria, UniProt Q79PF4 1-519, S431E | T432A).
T1 sequence: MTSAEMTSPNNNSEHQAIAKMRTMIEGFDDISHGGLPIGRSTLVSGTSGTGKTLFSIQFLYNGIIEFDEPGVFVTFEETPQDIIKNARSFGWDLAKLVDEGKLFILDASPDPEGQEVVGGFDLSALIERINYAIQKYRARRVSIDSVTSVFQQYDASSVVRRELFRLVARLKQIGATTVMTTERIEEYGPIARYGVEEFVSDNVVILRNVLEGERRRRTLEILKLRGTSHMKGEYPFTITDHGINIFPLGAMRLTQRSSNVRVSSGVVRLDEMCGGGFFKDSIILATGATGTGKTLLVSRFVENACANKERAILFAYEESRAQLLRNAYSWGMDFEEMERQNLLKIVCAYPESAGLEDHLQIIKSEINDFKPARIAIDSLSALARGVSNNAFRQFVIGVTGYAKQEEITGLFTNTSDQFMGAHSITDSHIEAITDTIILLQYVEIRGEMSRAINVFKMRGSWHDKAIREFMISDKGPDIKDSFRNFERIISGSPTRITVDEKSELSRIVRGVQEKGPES
Kind of test: pull-down.

The target of test [2] is T2, wild-type KaiC with an N-terminal FLAG epitope (cyanobacteria, UniProt Q79PF4 1-519).
T2 sequence: T1 sequence with E431S, A432T
Kind of test: pull-down.

The target in test [3] is T3, KaiC, wild type (no FLAG epitope) (cyanobacteria, UniProt Q79PF4 1-519).
T3 sequence: T1 sequence with E431S, A432T
Kind of test: fluorescence polarisation.

Test [4] addresses T2, wild-type KaiC with an N-terminal FLAG …. Kind of test: fluorescence polarisation. On the technique in general: In fluorescence polarisation assays a small probe gives low polarisation when free and higher when bound to something large.

B1: biotinylated KaiB (natural protein)
chain: MSPRKTYILKLYVAGNTPNSVRALKTLKNILEVEFQGVYALKVIDVLKNPQLAEEDKILATPTLAKVLPLPVRRIIGDLSDREKVLIGLDLLYGELQDSDDF
modifications: biotin (amine-reactive EZ-Link-Sulfo-NHS-LC-Biotin, 50 x molar excess; sites not determined)
As to B1, the binding result in test [1] and in test [2] was “binds” each time.

B2: FITC-labeled KaiB K25C (natural protein)
chain: B1 chain with K25C
modifications: FITC label
In the case of B2, the binding result in test [3] and in test [4] was “binds” throughout.
